# From patent US20240150489A1
# Columns and labels:
# [1] = target: CD38 on Raji-CD47KO cells (human) (UniProt P28907); assay: flow cytometry dot plot, Raji-CD47KO cells, saturating Darzalex-AF647 alone; other quadrants printed Q1 0, Q2 0, Q4 0.23
# [2] = target: CD38 on Raji-CD47KO cells (human) (UniProt P28907); assay: flow cytometry dot plot, Raji-CD47KO cells, mix of saturating Darzalex-AF647 and BEAT 38/47-60-AF488; other quadrants printed Q1 0.070, Q3 0.21, Q4 0.035
substance,measurement,setting,value
Darzalex (antibody),"percent of cells in quadrant Q3 (AF647 positive, AF488 negative)",[1],99.8%
same,percent of cells in quadrant Q2 (AF488 and AF647 double positive),[2],99.7%
